Here are results for 19 molecules from US20260258115A1 (MAPP BIOPHARMACEUTICAL, published 2026).

Common to all, as to experiment: BLI, IgG
In general terms: BLI is a label-free optical method that tracks binding on a fibre tip over time.

For assay [1], the target named is T1, RSV prefusion F (preF), subtype B (respiratory syncytial virus subtype B).
T1 construct: also called Prefusion subtype B

In assay [2] the target is T2, RSV postfusion F (postF), subtype A (respiratory syncytial virus subtype A, UniProt P03420 26-513).
T2 construct: also called Postfusion subtype A; F deltaFP

In assay [3] the target is T3, RSV postfusion F (postF), subtype B (respiratory syncytial virus subtype B).
T3 construct: also called Postfusion subtype B

Changes are numbered by the printed parent chain.

B1: ADI-24852 (antibody, V domains shown)
VH: QVQLVESGAEVKKPGASVKVSCKASGYTFTSYAIHWVRQAPGQRLEWMGWINAGNGNTKYSQKFQGRVTITRDTSASTAYMELSSLRSEDTAVYYCASEESGYFDYWGQGTLVTVSS
VL: not shown
notes: full-length IgG; also called Ab 413
As usually defined, the Kd is the equilibrium constant for the complex coming apart. A lower Kd goes with a tighter complex. Turning to B1, the Kd is 19 nM in assay [1], 9.57 nM in assay [2] and 9.17 nM in assay [3].

B2: ADI-22778 (antibody, V domains shown)
VH: EVQLVESGPGLVKPSETLSLTCTVSGGSINSYSWTWIRQPPGKGLEWLGSFDYSGSNTYNPSLKSRVTIAVDTSKNQFSLKLTSATAADTAVYYCARAPVYDSSGYYLYYFDNWGQGTLVTVSS
VL: DIQMTQSPSSLSASVGDRVTITCRASQSIASYLNWYQQKPGKAPKLLIFAASNLHSGVPSRFSGSGSGTTFTLTISSLQPEDFATYYCQQSYSIRFFTFGPGTKLEIK
notes: full-length IgG
With B2, the results for the Kd in assay [1], in assay [2] and in assay [3] were 4.02 nM, 0.209 nM and 2.77 nM, respectively.

B3: ADI-25467 (antibody, V domains shown)
VH: GVQLVESGPGLVKPSETLSLTCTVSGGSISSYYWSWIRQPPGKGLEWIGYIYYSGSTNYNPSLKSRVTISVDTSKNQFSLKLSSVTAADTAVYYCARGYYYDSSGYYPNDAFDIWGQGTMVTVSS
VL: not shown
notes: full-length IgG
With B3, the values for the dissociation constant Kd in assay [2] and in assay [3] were 25.3 nM and 26.2 nM, respectively.

B4: ADI-19483 (antibody, V domains shown)
VH: QVQLVQSGAEVKKPGESLKISCKGSGYSFTTYWIGWVRQMPGKGLEWMGIIFPGDSDTRYSPSFQGQVTISADKSISTAYLQWSSLKASDTAMYFCARSAFPFGFDIWGQGTMVTVSS
VL: SYVLTQPHSVSESPGKTVTISCTRSSGSIASNYVQWYQQRPGSSPTTVIYEDHQRPSGVPDRFSGSIDSSSNSASLTISGLQTEDEADYYCQSYGSGNPWVFGGGTKVTVL
notes: full-length IgG
Turning to B4, the Kd worked out at 1.77 nM in assay [1], 0.321 nM in assay [2] and 0.153 nM in assay [3].

B5: ADI-14354 (antibody, V domains shown)
VH: QVQLVQSGAEVKKPGSSAKVSCKASGGTFSSYTISWVRQAPGQGLEWMGRIIPFLGIANYAQKFQGRVTFTADKSTSTVYMDLSRLRSEDTALYYCAREPMYYGGDSYAFDVWGQGTTVTVSS
VL: QSVLTQPASMSGSPGHSITISCTGTSSDVGAYNYVSWYQQHPGKAPKLMIYDVSNRPSGVSSRFSGSKSGNTASLTISGLQPEDEADYYCSSFTTSSTRVFGTGTKLTVL
notes: full-length IgG; also called Ab 22
As for B5, the values for the Kd in assay [1], in assay [2] and in assay [3] were 25.3 nM, 1.04 nM and 6.63 nM, respectively.

B6: ADI-22763 (antibody, V domains shown)
VH: EVQLVESGGGLIQPGGSLRLSCAASGFTFSTYEMNWVRQAPGKGLEWVSSISTSGSTKDYAGSVKGRFTVSRDNAKNSLYLQMNSLRAEDTAIYYCARVYYYDSSGYYLALFDYWGQGTLVTVSS
VL: EIVLTQSPSSLSASVGDRVTITCRASQSIASYLNWYQQKPGKAPKLLIYAASSLRSGVPSRFSGSGSGTDFTLTISSLQPEDFATYYCQQSYSTPSLTFGGGTKLEIK
notes: full-length IgG
Take B6: the Kd was 10.8 nM in assay [1], 0.319 nM in assay [2] and 5.33 nM in assay [3].

B7: ADI-22777 (antibody, V domains shown)
VH: QVQLVQSGAEVKRPGASVKVSCKASEYTFNFHDINWVRQAPGQGLEWMGWMNPKSGNTGYAQKFQGRVTMTRDTSKNTAYLELSSLRSEDTAVYYCARGYGTSWSSDSWWGQGTLVTVSS
VL: SYELTQLPSVSVSPGQTARITCSGDALSKQFVYWYQQKPGLAPMLVIYKDTNRPSWIPERFSGSGSGTTATLTISEVQAEDEADYYCQSVDNSGTYGWVFGGGTKVTVL
notes: full-length IgG
With B7, the Kd turned out to be 0.762 nM in assay [1], 0.268 nM in assay [2] and 0.224 nM in assay [3].

B8: ADI-22764 (antibody, V domains shown)
VH: QVQLVESGPGLVRPSGTLSLTCAVSGGSISGKNWWSWVRQPPGKGLEWIGEIDHSGSTNYNPSLKSRVTISVDKSKNQFSLKLSSVTAADTAVYYCARTGLYDSSGYYLYYFNYWGQGTLVTVSS
VL: EIVMTQSPSSLSASVGDRVTISCRASQTIASYVNWYQQRPGKAPNLLIFAASNLQTGVPSRFRGSGSGTVFTLTISSLQPEDFATYYCQQSYSTPRTFGQGTKVDIK
notes: full-length IgG
As to B8, the Kd in assay [1] worked out at 1.42 nM; in assay [2], 0.334 nM; in assay [3] it was 1.44 nM.

B9: ADI-19484 (antibody, V domains shown)
VH: QVQLQESGSGLVKPSQTLSLTCVVSGGSISSGGNSWSWIRQPPGKGLEWIGYIYDSGNTYYNPSLKSRVTISVDRSKNQFSLKVSSVTAADTAVYYCARGAETGTTGWYDPWGQGTLVTVSS
VL: DIRLTQSPSSLSASVGDRVTITCRASQTISSYLNWYQQKPGKAPRLLIYAASSLQSGVPSRFSGSGSGTDFTLTISSLQPEDFATYYCQQSYGTPRTFGQGTKVEIK
notes: full-length IgG
Regarding B9, the results for the Kd in assay [1], in assay [2] and in assay [3] were 8.92 nM, 0.369 nM and 0.355 nM, respectively.

B10: ADI-14351 (antibody, V domains shown)
VH: EVQLLESGGGLVQPGGSLRLSCSASGFTFSTYWMHWVRQAPGKGLVWVSRINGDGNDRNYADSVKGRFTISRDNAKNTVYLQMNSLRAEDTAVYYCARGGATGDFYFGMDVWGQGTTVTVSS
VL: SYELTQPPSVSVAPGKTAKITCGGNNIGTKSVHWYQQKPGQAPVLVIYYDTDRPSGIPERFSGSNSGNTATLTISRVEAGDEADYYCQVWDSSNSDHVGVFGGGTQLTVL
notes: full-length IgG; also called Ab 19
B10: the Kd in assay [1] was 0.789 nM; in assay [2] it was 0.361 nM; in assay [3] it was 0.215 nM.

B11: ADI-22760 (antibody, V domains shown)
VH: EVQLVESGGGLVQPGRSLRLSCVASGFTFDDYAMHWVRQAPGKGLEWVSGINWNSGGIGYADSVKGRFTISRDNTKNSLYLQMNSLRAEDTALYYCAKDGSALMGYGVEVWGQGTTVTVSS
VL: SYELTQPPSASGTPGQRVTISCSGSNSNIGNNYVYWYQQLPGTAPKLLIYRNNQWPSGVPDRFSASKSGTSASLAISGLRSEDEADYYCASWDDSLSALVFGGGTKLTVL
notes: full-length IgG; also called Ab 340
B11: the Kd in assay [1] was determined as 3.07 nM; in assay [2], 1.19 nM; in assay [3], 1.25 nM.

B12: ADI-19505 (antibody, V domains shown)
VH: QVQLVQSGAEVKKPGESLKISCKGSGYSFTNYWIGWVRQMPGKGLEWMGITYPGDSDTRYSPSFQGQVTISADKSISTAHLQWDSLKASDTAMYYCARLRCTGSICYDAFDIWGQGTTVTVSS
VL: SYVLTQPLSVSVALGQTARITCGGNNIGSKNVHWYQQKPGQAPVLVIYRDNNRPSGIPERFSGSNSGNTATLTISRAQAGDEADYYCQVWDSSTGGDVFGAGTKVTVL
notes: full-length IgG
For the molecule B12, the Kd in assay [1] was determined as 44.4 nM; in assay [2], 4.94 nM; in assay [3] it was 5.01 nM.

B13: ADI-14352 (antibody, V domains shown)
VH: EVQLLETGPGLVKPSQTLSLICAVSGGSISSGGYSWSWIRQPPGKGLEWVGYISYSGSTYYNPSLKSRVTISVDTSKNQFSLKLNSVTAADTAVYFCARVDGIYSSGMRFDYWGQGTLVTVSS
VL: DIQLTQSPGTLSLSPGERATLSCRASQSVSSYYLAWYQQKPGQAPRLLIYGTSSRATGIPDRFSGSGSGTDFTLTISRLEPEDFAVYYCQQYGRSPLFGQGTRLEIK
notes: full-length IgG; also called Ab 20
For the molecule B13, the Kd in assay [1] was found to be 5.54 nM; in assay [2] it was 0.448 nM; in assay [3], 0.383 nM.

B14: ADI-22780 (antibody, V domains shown)
VH: EVQLVESGPTLVKPTQTLTLTCTFSGFSLSTSGVGVGWIRQPPGKALEWLALIYWDDDKRYSPSLKSRLTITKDTSKNQVVLTMTNMDPVDTATYYCAHRGRQYSYGYYYFDYWGQGTLVTVSS
VL: QSVLIQPASVSGSPGQSITISCTGTSSDVGGYNFVSWYQQHPGKAPKLMIYDVSNRPSGVSNRFSGSKSGNTASLTISGLQAEDEADYYCSSYTSSTLDVFGTGTKVTVL
notes: full-length IgG
In the case of B14, the Kd turned out to be 23.8 nM in assay [1], 0.739 nM in assay [2] and 0.6 nM in assay [3].

B15: ADI-25587 (antibody, V domains shown)
VH: QVQLVESGGGVVQPGRSLRLSCAASGFTFSSYGMHWVRQAPGKGLEWVAVIWYDGSNKYYADSVKGRFTISRDNSKNTLYLQMNSLRAEDTAVYYCARDSTYSEAFDIWGQGTMVTVSS
VL: B14 VL with F34Y, T97S, L98T, D99W, T103G
notes: full-length IgG
On to B15, for which the Kd in assay [2] was 9.23 nM; in assay [3] it was 7.93 nM.

B16: ADI-14339 (antibody, V domains shown)
VH: QVQLVESGGGVLQPGRSLRLPCEASGFTFNKYAMHWVRQAPGKGLEWVAAVSYDGGNKFYAESVKGRFTISRDNSKNTLYLQMNSLKPEDTAVYYCARDRWELLHGLDYWGLGTLVTVSS
VL: SYELTQPPSVSVSPGQTARITCSGEALAKQYAYWYQQKPGQAPVLVIYKDNERPSGISERFSGSSSGTTVTLTISGVQAEDEADYYCQSADSSGTYVFGTGTKVTVL
notes: full-length IgG; also called Ab 7
For the molecule B16, the Kd in assay [1] was determined as 1.77 nM; in assay [2], 0.439 nM; in assay [3] it was 0.376 nM.

B17: ADI-14379 (antibody, V domains shown)
VH: EVQLLESGGGVVQPGRSLRLSCAASGFTFSSYAMHWVRQAPGKGLEWVAVIGNDGTNKYHADSVKGRFTISRDNSKNTLYLQMNSLRAEDTAVYYCARRRVGIMYSGSYWGGMDVWGQGTTVTVSS
VL: SYELTQPPSVSVSPGQTASITCSGDKLGGKYVSWYQQKPGQSPVLVMYQDTRRPSGIPERLSGSNSGSTATLTISATQAMDEADYYCQAWDITTVHVVFGGGTKLTVL
notes: full-length IgG; also called Ab 47
For B17, the Kd in assay [2] was 3.29 nM; in assay [3], 2.35 nM.

B18: ADI-24834 (antibody, V domains shown)
VH: QVQLVQSGGGLVQPGGSLRLSCAASGFTFSSYAMSWVRQAPGKGLEWVSTISGSGGSTYYADSVKGRFTISRDNSKNTLYLQMNSLRAEDTAVYYCATWKRWGSGYYYSYMDVWGKGTTVTVSS
VL: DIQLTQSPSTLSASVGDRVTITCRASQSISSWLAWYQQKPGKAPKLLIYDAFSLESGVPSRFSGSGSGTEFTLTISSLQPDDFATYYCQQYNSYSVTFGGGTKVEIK
notes: full-length IgG
For the molecule B18, the Kd was 0.732 nM in assay [1], 0.211 nM in assay [2] and 0.26 nM in assay [3].

B19: ADI-14372 (antibody, V domains shown)
VH: QVQLLESGGGLVQPGGSLRLSCAASGFTFSNYAMGWVRQAPGQGLEWVSRISATGGSTHYADSVRGRFTISRDNSKNTLYLQMNSLKAEDTAVYYCAKDRGYSRNLTPDYWGQGTLVTVSS
VL: ETTLTQSPSSLSASVGDRVTITCRASQGITNDLGWYQKKPGKAPKLLIYVASSLQSGVPSRFSGSGSGTDFTLTISSLQPEDFATYYCLQDYNYPITFGQGTKVDIK
notes: full-length IgG; also called Ab 40
B19: the Kd in assay [2] is 0.659 nM; in assay [3] it was 4.43 nM.
